Each block holds one binder with its values, some of them ahead of it. Starred links: 1 amine or outer side, 2 acyl side, 3 side chain; linkers in the order of their positions; H or OH if unused. Positions of bridges follow the written chain, without caps; N, C: chain ends. Non-standard residues stand in square brackets, D forms with d. Primed or numbered codes have the meaning given here. No end group written: not given here. PyrS2″ = (S)-3-amino-1-((pent-4-en-1-yloxy)carbonyl)pyrrolidine-3-carboxylic acid (stapling residue), C=CCCCOC(=O)N1CC[C@@](N[*:1])(C(=O)[*:2])C1; B5(16) = 2-amino-2-(pent-4-en-1-yl)hept-6-enoic acid = 2,2-bis(4-pentenyl)glycine (stitching residue), C=CCCCC(CCCC=C)(N[*:1])C(=O)[*:2]; B5(30) = 2-amino-2-(pent-4-en-1-yl)hept-6-enoic acid (2,2-bis(4-pentenyl)glycine, stitching residue), C=CCCCC(CCCC=C)(N[*:1])C(=O)[*:2]; B5(4) = 2,2-bis(4-pentenyl)glycine = 2-amino-2-(pent-4-en-1-yl)hept-6-enoic acid (stitching residue), C=CCCCC(CCCC=C)(N[*:1])C(=O)[*:2]; B5(5) = 2,2-bis(4-pentenyl)glycine, 2-amino-2-(pent-4-en-1-yl)hept-6-enoic acid (stitching residue), C=CCCCC(CCCC=C)(N[*:1])C(=O)[*:2]; PyrS2 = (S)-3-amino-1-((pent-4-en-1-yloxy)carbonyl)pyrrolidine-3-carboxylic acid, C=CCCCOC(=O)N1CC[C@@](N[*:1])(C(=O)[*:2])C1; B5(12) = 2-amino-2-(pent-4-en-1-yl)hept-6-enoic acid (two olefin side chains), C=CCCCC(CCCC=C)(N[*:1])C(=O)[*:2]; Phe(3-COOH) = N[C@@H](Cc1cccc(C(=O)O)c1)C(=O)O; Phe(2-CF3) = N[C@@H](Cc1ccccc1C(F)(F)F)C(=O)O; Phe(2-Cl) = N[C@@H](Cc1ccccc1Cl)C(=O)O; Phe(2-Me) = Cc1ccccc1C[C@H](N)C(=O)O; Bta = N[C@@H](Cc1csc2ccccc12)C(=O)O; Lys(iPr) = CC(C)NCCCC[C@H](N)C(=O)O; αAllylPro = C=CC[C@@]1(C(=O)O)CCCN1; tBuAla = CC(C)(C)C[C@H](N)C(=O)O; 3Thi = N[C@@H](Cc1ccsc1)C(=O)O; Cha = N[C@@H](CC1CCCCC1)C(=O)O; Thr(ol) = C[C@@H](O)[C@H](N)CO; PyrS2(4) = not defined here
Tests used:
Bcat-Halo [1] = molecular target: Bcat-Halo (UniProt P35222); experiment: NanoBRET Abs IC50, HEK293 cells transfected with Bcat-Halo and TCF4-Luc (competitor: TCF4-Luc); cellular assay
[2] = molecular target: full-length beta-Catenin (Uniprot ID P35222) (Homo sapiens (Human)) (UniProt P35222); experiment: fluorescence polarization competition; full-length beta-catenin with 5FAM-TCF4(10-53) probe, peptide titrated
Target sequence in this assay (P35222 whole entry, one chain of several): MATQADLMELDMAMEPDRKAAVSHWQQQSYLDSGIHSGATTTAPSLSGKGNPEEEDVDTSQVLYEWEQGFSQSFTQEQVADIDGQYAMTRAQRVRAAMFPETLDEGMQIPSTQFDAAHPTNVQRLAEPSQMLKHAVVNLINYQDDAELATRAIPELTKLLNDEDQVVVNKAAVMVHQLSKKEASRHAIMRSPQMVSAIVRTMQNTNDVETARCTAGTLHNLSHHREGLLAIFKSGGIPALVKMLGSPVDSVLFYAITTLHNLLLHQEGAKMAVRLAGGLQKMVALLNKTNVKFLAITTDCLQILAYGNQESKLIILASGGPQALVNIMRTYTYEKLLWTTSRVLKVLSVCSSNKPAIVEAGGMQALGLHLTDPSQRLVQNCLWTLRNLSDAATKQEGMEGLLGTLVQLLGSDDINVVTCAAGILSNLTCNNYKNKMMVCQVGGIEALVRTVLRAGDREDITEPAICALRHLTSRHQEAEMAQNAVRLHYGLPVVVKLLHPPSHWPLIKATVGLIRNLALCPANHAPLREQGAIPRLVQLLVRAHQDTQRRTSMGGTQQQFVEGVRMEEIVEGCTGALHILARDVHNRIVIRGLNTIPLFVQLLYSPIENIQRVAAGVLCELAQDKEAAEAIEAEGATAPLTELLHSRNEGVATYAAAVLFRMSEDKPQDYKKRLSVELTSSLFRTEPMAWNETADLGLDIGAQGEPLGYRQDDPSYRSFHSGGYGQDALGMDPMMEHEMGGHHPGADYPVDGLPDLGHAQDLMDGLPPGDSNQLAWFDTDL

[3] = molecular target: full-length beta-Catenin (Uniprot ID P35222) (Homo sapiens (Human)) (UniProt P35222); experiment: fluorescence polarization competition; 10 nM full-length beta-catenin + 10 nM 5FAM-TCF4 10-53 as competitor probe
Target sequence in this assay (P35222 2-781 limits assumed): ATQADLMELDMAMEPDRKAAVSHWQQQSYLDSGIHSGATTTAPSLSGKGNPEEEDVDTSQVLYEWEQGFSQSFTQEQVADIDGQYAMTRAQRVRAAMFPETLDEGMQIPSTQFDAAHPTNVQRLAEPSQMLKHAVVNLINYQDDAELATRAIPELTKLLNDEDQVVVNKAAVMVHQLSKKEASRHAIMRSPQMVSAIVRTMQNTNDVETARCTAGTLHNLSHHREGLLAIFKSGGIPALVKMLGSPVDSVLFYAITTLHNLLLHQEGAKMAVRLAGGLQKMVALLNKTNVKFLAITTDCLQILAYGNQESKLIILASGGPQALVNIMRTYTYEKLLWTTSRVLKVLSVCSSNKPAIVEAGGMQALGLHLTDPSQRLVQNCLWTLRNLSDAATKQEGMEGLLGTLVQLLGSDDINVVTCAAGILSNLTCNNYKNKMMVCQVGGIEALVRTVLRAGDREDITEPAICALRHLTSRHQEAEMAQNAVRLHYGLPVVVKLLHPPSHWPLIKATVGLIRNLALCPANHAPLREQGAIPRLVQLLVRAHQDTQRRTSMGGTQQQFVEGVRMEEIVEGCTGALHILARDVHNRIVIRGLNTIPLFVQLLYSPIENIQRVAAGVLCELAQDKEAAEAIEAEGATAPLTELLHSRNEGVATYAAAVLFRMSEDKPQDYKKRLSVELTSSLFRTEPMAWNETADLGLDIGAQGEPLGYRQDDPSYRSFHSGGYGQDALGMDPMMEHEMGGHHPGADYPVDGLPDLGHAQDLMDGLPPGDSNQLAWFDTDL

[4] = molecular target: full-length beta-Catenin (Uniprot ID P35222) (Homo sapiens (Human)) (UniProt P35222); experiment: cell-based or functional assay
[5] = molecular target: B-cat-Halo (beta-catenin HaloTag NanoBRET construct expressed in HEK293 cells) (UniProt P35222); experiment: NanoBRET Abs IC50 in HEK293 cells; Bcat-Halo, competitor TCF4-Luc
[6] = molecular target: full-length beta-Catenin (Uniprot ID P35222) (Homo sapiens (Human)) (UniProt P35222); experiment: fluorescence polarization competition; full-length beta-catenin, competitor 5FAM-TCF4(10-53) probe
Target sequence in this assay (P35222 2-781 limits assumed): as above

Bcat-Halo [7] = molecular target: Bcat-Halo (UniProt P35222); experiment: NanoBRET absolute IC50, HEK293 cells, Bcat-Halo/TCF4-Luc engagement
[8] = molecular target: full-length beta-Catenin (Uniprot ID P35222) (Homo sapiens (Human)) (UniProt P35222); experiment: FP competition, full-length beta-catenin, competitor probe 5FAM-TCF4 10-53
Target sequence in this assay (P35222 2-781 limits assumed): as above

[9] = molecular target: full-length beta-Catenin (Uniprot ID P35222) (Homo sapiens (Human)) (UniProt P35222); experiment: fluorescence polarization competition; peptide titrated against 5FAM-TCF4(10-53) bound to full-length beta-catenin
Target sequence in this assay (P35222 whole entry, one chain of several): as the sequence (P35222 whole entry, one chain of several) above

Bcat-Halo [10] = molecular target: Bcat-Halo (UniProt P35222); experiment: NanoBRET (Abs IC50) in HEK293 cells; Bcat-Halo / TCF4-Luc
[11] = molecular target: full-length beta-Catenin (Uniprot ID P35222) (Homo sapiens (Human)) (UniProt P35222); experiment: FP competition; full-length beta-catenin + 5FAM-TCF4(10-53) probe
Target sequence in this assay (P35222 whole entry, one chain of several): as above

[12] = molecular target: full-length beta-Catenin (Uniprot ID P35222) (Homo sapiens (Human)) (UniProt P35222); experiment: fluorescence polarization competition; full-length beta-catenin, competitor 5FAM-TCF4 10-53
Target sequence in this assay (P35222 whole entry, one chain of several): as above

Bcat-Halo [13] = molecular target: Bcat-Halo (UniProt P35222); experiment: NanoBRET absolute IC50 in HEK293 cells; Bcat-Halo, competitor TCF4-Luc
[14] = molecular target: full-length beta-Catenin (Uniprot ID P35222) (Homo sapiens (Human)) (UniProt P35222); experiment: fluorescence polarization competition; competitor 5FAM-TCF4(10-53) probe on full-length beta-catenin
Target sequence in this assay (P35222 whole entry, one chain of several): as above

[15] = molecular target: full-length beta-Catenin (Uniprot ID P35222) (Homo sapiens (Human)) (UniProt P35222); experiment: fluorescence polarization competition; full-length beta-catenin + 5FAM-TCF4 10-53 probe
Target sequence in this assay (P35222 2-781 limits assumed): as the sequence (P35222 2-781 limits assumed) above

[16] = molecular target: full-length beta-Catenin (Uniprot ID P35222) (Homo sapiens (Human)) (UniProt P35222); experiment: fluorescence polarization competition; full-length beta-catenin + 5FAM-TCF4(10-53) probe
Target sequence in this assay (P35222 whole entry, one chain of several): as the sequence (P35222 whole entry, one chain of several) above

Bcat-Halo, sequence (P35222 whole entry): as the sequence (P35222 whole entry, one chain of several) above
B-cat-Halo (beta-catenin HaloTag NanoBRET construct expressed in HEK293 cells), sequence (P35222 whole entry): as the sequence (P35222 whole entry, one chain of several) above

B1: I-1050 (peptide)
peptide: Ac-[αAllylPro]D[Cha][B5(5)]DDAAFS[PyrS2][Phe(2-Cl)][Bta]S-NH2
modifications: staple 1-4, 4-11
- IC50 (Bcat-Halo [1]): 24800 nM
- IC50 [2]: 5 nM
- EC50 [3]: 5 nM
- DLD1 reporter assay Abs IC50 [4]: 11200 nM

B2: I-1341 (peptide)
peptide: [αAllylPro]D[tBuAla][B5(4)]D[Phe(3-COOH)]AAFF[PyrS2″][Phe(2-CF3)][Bta]Q-NH2
modifications: staple 1-4; staple 4-11 (inferred)
- IC50 [5]: 3500 nM
- EC50 [6]: 17 nM
- IC50 (Bcat-Halo [7]): 3500 nM
- IC50 [8]: 17 nM

B3: I-1909 (peptide)
peptide: Ac-[αAllylPro]D[tBuAla][B5(12)]D[Phe(3-COOH)][Lys(iPr)]AFL[PyrS2(4)][3Thi][Bta]F-NH2
modifications: staple 1-4, 4-11; not fully specified; printed as Ac-PL3-Asp-Npg-B5-Asp-3COOHF-iPrLys-Ala-Phe-Leu-PyrS2-3Thi-BztA-Phe-NH2; reading uncertain
- IC50 [9]: 29 nM

B4: I-2026 (peptide)
peptide: Ac-[αAllylPro]D[tBuAla][B5(5)]D[Phe(3-COOH)]AAFA[PyrS2″][Phe(2-Cl)][Bta][dA]-NH2
modifications: staple 1-4, 4-11
- IC50 (Bcat-Halo [10]): 9700 nM
- IC50 [11]: 26 nM

B7: I-1890 (peptide)
peptide: Ac-[αAllylPro]D[tBuAla][B5(5)]DRAAFN[PyrS2][3Thi][Bta]Q-NH2
modifications: staple 1-4, 4-11; not fully specified; printed as Ac-PL3-Asp-Npg-B5-Asp-Arg-Ala-Ala-Phe-Asn-PyrS2-3Thi-BztA-Gln-NH2
- IC50 [9]: 31 nM

B10: I-1304 (peptide)
peptide: Ac-[αAllylPro]N[tBuAla][B5(4)]DDAAFL[PyrS2][3Thi][Bta][Thr(ol)]
modifications: staple 1-4, 4-11
- IC50 [15]: 31 nM
- EC50 [16]: 31 nM

B13: I-2024 (peptide)
peptide: Ac-[αAllylPro]D[tBuAla][B5(5)]D[Phe(3-COOH)]AAFA[PyrS2″][Phe(2-Cl)][Bta]V-NH2
modifications: staple 1-4, 4-11
- IC50 (Bcat-Halo [10]): 17900 nM
- IC50 [11]: 78 nM

B14: I-1029 (peptide)
peptide: Ac-[αAllylPro]E[tBuAla][B5(5)]DDAAFN[PyrS2″][Phe(2-Cl)][Bta][dT]-NH2
modifications: staple 1-4, 4-11
- IC50 (Bcat-Halo [1]): > 20000 nM
- IC50 [12]: 823 nM
- IC50 (Bcat-Halo [13]): > 20000 nM
- EC50 [3]: 823 nM
- DLD1 reporter assay Abs IC50 [4]: > 20000 nM

B20: I-1342 (peptide)
peptide: [αAllylPro]D[tBuAla][B5(4)]D[Phe(3-COOH)]AAFF[PyrS2″][Phe(2-CF3)][Bta]S-NH2
modifications: staple 1-4; staple 4-11 (inferred)
- IC50 [5]: 7000 nM
- EC50 [6]: 35 nM
- IC50 (Bcat-Halo [7]): 7000 nM
- IC50 [8]: 35 nM

B21: I-1911 (peptide)
peptide: Ac-[αAllylPro]D[tBuAla][B5(12)]D[Phe(3-COOH)]KAFL[PyrS2(4)][3Thi][Bta]F-NH2
modifications: staple 1-4, 4-11; not fully specified; printed as Ac-PL3-Asp-Npg-B5-Asp-3COOHF-Lys-Ala-Phe-Leu-PyrS2-3Thi-BztA-Phe-NH2; reading uncertain
- IC50 [9]: 38 nM

B22: I-1030 (peptide)
peptide: Ac-[αAllylPro]D[tBuAla][B5(5)]EDAAFN[PyrS2″][Phe(2-Cl)][Bta][dT]-NH2
modifications: staple 1-4, 4-11
- IC50 (Bcat-Halo [1]): > 20000 nM
- IC50 [12]: 507 nM
- IC50 (Bcat-Halo [13]): > 20000 nM
- EC50 [3]: 507 nM
- DLD1 reporter assay Abs IC50 [4]: > 20000 nM

Second part, the binder after the results:

- IC50 (Bcat-Halo [1]): 10200 nM
- IC50 [12]: 21 nM
- IC50 (Bcat-Halo [13]): 10200 nM
- EC50 [3]: 21 nM
- DLD1 reporter assay Abs IC50 [4]: > 20000 nM
B5: I-1035 (peptide)
peptide: Ac-[αAllylPro]D[tBuAla][B5(5)]DDAAFL[PyrS2″][Phe(2-Cl)][Bta][dT]-NH2
modifications: staple 1-4, 4-11

- IC50 [9]: 15 nM
B6: I-1904 (peptide)
peptide: Ac-[αAllylPro]D[tBuAla][B5(12)]D[Phe(3-COOH)]AAFL[PyrS2(4)][Phe(2-Cl)][Bta]N-NH2
modifications: staple 1-4, 4-11; not fully specified; printed as Ac-PL3-Asp-Npg-B5-Asp-3COOHF-Ala-Ala-Phe-Leu-PyrS2-2C1F-BztA-Asn-NH2; reading uncertain

- IC50 [9]: 40 nM
B8: I-1891 (peptide)
peptide: Ac-[αAllylPro]D[tBuAla][B5(5)]DRAAFN[PyrS2][3Thi][Bta]Q-NH2
modifications: staple 1-4, 4-11; not fully specified; printed as Ac-PL3-Asp-Npg-B5-Asp-Arg-Ala-Ala-Phe-Asn-PyrS2-3Thi-BztA-Gln-NH2

- IC50 [14]: 12 nM
- IC50 [5]: 6200 nM
- EC50 [6]: 12 nM
B9: I-1326 (peptide)
peptide: [αAllylPro]D[tBuAla][B5(4)]DDAAFF[PyrS2″][Phe(2-Me)][Bta]Q-NH2
modifications: staple 1-4, 4-11

- IC50 [5]: 6800 nM
- EC50 [6]: 159 nM
- IC50 (Bcat-Halo [7]): 6800 nM
- IC50 [8]: 159 nM
B11: I-1340 (peptide)
peptide: [αAllylPro]D[tBuAla][B5(4)]D[Phe(3-COOH)]AAFF[PyrS2″][Phe(2-Cl)][Bta][Thr(ol)]
modifications: staple 1-4; staple 4-11 (inferred)

- IC50 [5]: 5200 nM
- EC50 [6]: 33 nM
- IC50 (Bcat-Halo [7]): 5200 nM
- IC50 [8]: 33 nM
B12: I-1339 (peptide)
peptide: [αAllylPro]D[tBuAla][B5(4)]D[Phe(3-COOH)]AAFF[PyrS2″][Phe(2-Cl)][Bta]S-NH2
modifications: staple 1-4; staple 4-11 (inferred)

- IC50 [9]: 17 nM
B15: I-1910 (peptide)
peptide: Ac-[αAllylPro]D[tBuAla][B5(12)]D[Phe(3-COOH)]HAFL[PyrS2(4)][3Thi][Bta]F-NH2
modifications: staple 1-4, 4-11; not fully specified; printed as Ac-PL3-Asp-Npg-B5-Asp-3COOHF-His-Ala-Phe-Leu-PyrS2-3Thi-BztA-Phe-NH2; reading uncertain

- IC50 (Bcat-Halo [10]): 7800 nM
- IC50 [11]: 32 nM
B16: I-2023 (peptide)
peptide: Ac-[αAllylPro]D[tBuAla][B5(5)]D[Phe(3-COOH)]AAFA[PyrS2″][Phe(2-Cl)][Bta]A-NH2
modifications: staple 1-4, 4-11

- IC50 [5]: 3600 nM
- EC50 [6]: 10 nM
- IC50 (Bcat-Halo [7]): 3600 nM
- IC50 [8]: 10 nM
B17: I-1338 (peptide)
peptide: [αAllylPro]D[tBuAla][B5(4)]D[Phe(3-COOH)]AAFF[PyrS2″][Phe(2-Cl)][Bta]Q-NH2
modifications: staple 1-4; staple 4-11 (inferred)

- IC50 (Bcat-Halo [1]): 17600 nM
- IC50 [2]: 5 nM
- EC50 [3]: 5 nM
- DLD1 4% Abs IC50 [4]: 14500 nM
- DLD1 reporter assay Abs IC50 [4]: 20000 nM
B18: I-1044 (peptide)
peptide: Ac-[αAllylPro]D[Cha][B5(5)]DDAAFS[PyrS2″][Phe(2-Cl)][Bta]Q-NH2
modifications: staple 1-4, 4-11

- EC50 [6]: 150 nM
- IC50 [8]: 150 nM
B19: I-1343 (peptide)
peptide: Ac-[αAllylPro]D[tBuAla][B5(4)]D[Phe(3-COOH)]AAFF[PyrS2″][Phe(2-CF3)][Bta][Thr(ol)]
modifications: staple 1-4; staple 4-11 (inferred)

- IC50 (Bcat-Halo [1]): 20500 nM
- IC50 [2]: 5 nM
- EC50 [3]: 5 nM
B23: I-1046 (peptide)
peptide: Ac-[αAllylPro]D[Cha][B5(5)]DDAAFN[PyrS2″][Phe(2-Cl)][Bta]S-NH2
modifications: staple 1-4, 4-11

- IC50 [9]: 1420 nM
B24: I-1892 (peptide)
peptide: Ac-[αAllylPro]D[tBuAla][B5(30)]NRAAFN[PyrS2][3Thi][Bta]Q-NH2
modifications: staple 1-4, 4-11; also: earlier-eluting HPLC isomer
